Patent US20020147168

What was measured:
Experiment in all cases: cell_activity
[1] = test system: Cre recombinase S2A (Bacteriophage P1); settings: pBS210 excision in Nicotiana plumbaginifolia protoplasts, 72 h; pBS210 alone 0
[2] = test system: nlsCre recombinase S2A (Bacteriophage P1); settings: pBS210 excision in Nicotiana plumbaginifolia protoplasts, 72 h; pBS210 alone 0
[3] = test system: nlsCre recombinase from intron-containing gene (inlscre) S2A (Bacteriophage P1); settings: pBS210 excision in Nicotiana plumbaginifolia protoplasts, 72 h; also in planta excision in tobacco from pBS229

In the case of “loxP sites in direct repeat (pBS210, pBS229)”, the activity (GUS units/25 ug protein) [1] is reported as 133, the activity (GUS units/25 ug protein) [2] is reported as 141 and the activity (GUS units/25 ug protein) [3] is reported as 51.
